Consider two substances from publication PMC2811000.

Test [1] addresses acrylodan-labeled C-terminal catalytic kinase/phosphatase domain of PNKP (human). In words: other fluorescence titration.
Test [2] concerns the target acrylodan-labeled FHA domain of PNKP (human) (UniProt Q96T60). In words: other fluorescence titration.

One may read the Kd as a measure of binding affinity in units of concentration. The low end stands for a tighter complex, the high end for a looser complex. For the substance “non-phosphorylated XRCC1 (from UniProt P18887 1-633) (natural protein)”, in test [1], the Kd amounted to 43 nM.

For orientation: stoichiometry N means the number of molecules, sites or subunits per partner or assembly. For the substance “CK2-phosphorylated XRCC1 (from UniProt P18887 1-633) (natural protein)”, the AC fluorescence quenching in test [1] was determined as 8%. Further, in test [2], the AC fluorescence quenching stood at 50%, the Kd was found to be 3.5 nM and the stoichiometry N amounted to 1.08.
